Measurements taken from IntAct's records for PubMed 19279667.

B1: Integrin beta-3 (Homo sapiens), P05106 (parent)
chain: MRARPRPRPLWATVLALGALAGVGVGGPNICTTRGVSSCQQCLAVSPMCAWCSDEALPLGSPRCDLKENLLKDNCAPESIEFPVSEARVLEDRPLSDKGSGDSSQVTQVSPQRIALRLRPDDSKNFSIQVRQVEDYPVDIYYLMDLSYSMKDDLWSIQNLGTKLATQMRKLTSNLRIGFGAFVDKPVSPYMYISPPEALENPCYDMKTTCLPMFGYKHVLTLTDQVTRFNEEVKKQSVSRNRDAPEGGFDAIMQATVCDEKIGWRNDASHLLVFTTDAKTHIALDGRLAGIVQPNDGQCHVGSDNHYSASTTMDYPSLGLMTEKLSQKNINLIFAVTENVVNLYQNYSELIPGTTVGVLSMDSSNVLQLIVDAYGKIRSKVELEVRDLPEELSLSFNATCLNNEVIPGLKSCMGLKIGDTVSFSIEAKVRGCPQEKEKSFTIKPVGFKDSLIVQVTFDCDCACQAQAEPNSHRCNNGNGTFECGVCRCGPGWLGSQCECSEEDYRPSQQDECSPREGQPVCSQRGECLCGQCVCHSSDFGKITGKYCECDDFSCVRYKGEMCSGHGQCSCGDCLCDSDWTGYYCNCTTRTDTCMSSNGLLCSGRGKCECGSCVCIQPGSYGDTCEKCPTCPDACTFKKECVECKKFDRGALHDENTCNRYCRDEIESVKELKDTGKDAVNCTYKNEDDCVVRFQYYEDSSGKSILYVVEEPECPKGPDILVVLLSVMGAILLIGLAALLIWKLLITIHDRKEFAKFEEERARAKWDTANNPLYKEATSTFTNITYRGT

Variants of: B1
Conditions: with ita2b_human ITGA2B
D749A was tested, and the “effect of a mutation on the interaction” value was “decreasing interaction”.

Variants of: B1
Conditions: with ita2b_human ITGA2B
Remark: another data set of the same source
W741Y was tested, and the “effect of a mutation on the interaction” value was “decreasing interaction”.

Variants of: B1
Conditions: with ita2b_human ITGA2B
Remark: another data set of the same source
For L738A, the “effect of a mutation on the interaction” value was “decreasing interaction”.

Variants of: B1
Conditions: with ita2b_human ITGA2B
Remark: another data set of the same source
With I719A the “effect of a mutation on the interaction” value was “decreasing interaction”.
